This passage reports Kd results from patent US20190201496A1 (published 2019).

Holding throughout (assay): SPR; pH 6
The target of test [1] is T1, human β2-microglobulin (UniProt P61769 21-119).
For test [2], the target named is T1, human β2-microglobulin. This is another data set of the same source.
A further test concerns the target mβ2m.
The next test concerns the target T2, HLA-A2:01 (human, UniProt A*02:01, biotinylated (site not stated)).
T2 chain: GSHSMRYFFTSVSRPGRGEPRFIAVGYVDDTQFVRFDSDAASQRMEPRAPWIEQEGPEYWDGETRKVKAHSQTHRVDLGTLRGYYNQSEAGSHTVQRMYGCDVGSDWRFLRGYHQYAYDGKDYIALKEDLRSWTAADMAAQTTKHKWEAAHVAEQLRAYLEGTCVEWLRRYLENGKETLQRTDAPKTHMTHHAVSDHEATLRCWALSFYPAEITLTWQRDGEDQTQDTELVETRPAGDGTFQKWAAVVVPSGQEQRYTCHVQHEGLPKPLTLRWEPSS

Read-outs that look alike come from different tables or passages of the source.

T1 sequence (P61769 21-119): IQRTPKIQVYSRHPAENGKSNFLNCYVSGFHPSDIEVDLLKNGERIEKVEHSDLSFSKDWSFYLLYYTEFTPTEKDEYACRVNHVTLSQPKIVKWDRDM

B1: hAFP N-His (protein)
chain: RTLHRNEYGIASILDSYQCTAEISLADLATIFFAQFVQEATYKEVSKMVKDALTAIEKPTGDEQSSGCLENQLPAFLEELCHEKEILEKYGHSDCCSQSEEGRHNCFLAHKKPTPASIPLFQVPEPVTSCEAYEEDRETFMNKFIYEIARRHPFLYAPTILLWAARYDKIIPSCCKAENAVECFQTKAATVTKELRESSLLNQHACAVMKNFGTRTFQAITVTKLSQKFTKVNFTEIQKLVLDVAHVHEHCCRGDVLDCLQDGEKIMSYICSQQDTLSNKITECCKLTTLERGQCIIHAENDEKPEGLSPNLNRFLGDRDFNQFSSGEKNIFLASFVHEYSRRHPQLAVSVILRVAKGYQELLEKCFQTENPLECQDKGEEELQKYIQESQALAKRSCGLFQKLGEYYLQNAFLVAYTKKAPQLTSSELMAITRKMAATAATCCQLSEDKLLACGEGAADIIIGHLCIRHEMTPVNPGVGQCCTSSYANRRPCFSSLVVDETYVPPAFSDDKFIFHKDLCQAQGVALQTMKQEFLINLVKQKPQITEEQLEAVIADFSGLLEKCCQGQEQEVCFAEEGQKLISKTRAALGV
For the molecule B1, the dissociation constant (Kd) (usually the free concentration of one partner at which half of the binding sites on the other are occupied at equilibrium, for simple one-to-one binding) with human β2-microglobulin [1] worked out at 96.9 nM.

B2: human alpha-fetoprotein (AFP) (ligand)
chain: B1 chain
Consider B2, for which, in the test with human β2-microglobulin [2], binding was put at a Kd of 125 nM. This counts as sub-micromolar.

B3: human AFP derived from cord blood (ligand)
chain: B1 chain
B3 gave an equilibrium dissociation constant (Kd) with human β2-microglobulin [1] of 193 nM. In other words, the sub-micromolar range.

B4: hAFP cord (ligand)
chain: B1 chain
In the test with mβ2m, B4 returned a Kd of 167 nM.

B5: AFP (ligand)
chain: B1 chain
In the test with HLA-A2:01, B5 came in with a Kd of 35.9 nM.
